Results published in the Human Domainome abundance scans (Beltran et al. 2025).
± gives the uncertainty stated by the source.

B1: Zinc finger MYM-type protein 3, residues 405 to 444; numbered along this chain, Q14202 (parent)
chain: DATRCSICQKTGEVLHEVSNGSVVHRLCSDSCFSKFRANK

Variants of: B1
Test: abundance fitness (aPCA) (normalised: wild type 0, dead -1); higher = more abundant; growth selection in yeast, the domain comes from the species named
Settings: Homo sapiens

Variant | abundance fitness
H16R | -0.121 ± 0.051
H16N | -0.252 ± 0.27
A2F | 0.186 ± 0.14
A2W | -0.204 ± 0.08
A2K | 0.243 ± 0.08
A2Q | 0.285 ± 0.069
A2H | 0.041 ± 0.11
A2P | -0.225 ± 0.068
A2V | -0.603 ± 0.068
D1S | -0.054 ± 0.09
D1K | 0.157 ± 0.079
D1E | 0.331 ± 0.076
D1V | 0.083 ± 0.065
C32L | -0.676 ± 0.076
C32K | -0.727 ± 0.097
C32D | -0.301 ± 0.1
R26K | 0.013 ± 0.074
R26E | -0.283 ± 0.063
R26Y | -0.339 ± 0.084
R26F | -0.177 ± 0.075
R26Q | 0.097 ± 0.059
R26N | -0.195 ± 0.077
T11N | -0.14 ± 0.089
T11C | -0.519 ± 0.12

Variant | abundance fitness
T11Q | -0.157 ± 0.077
T11F | -0.221 ± 0.15
T11L | -0.116 ± 0.066
T11G | -0.127 ± 0.055
I7A | -0.325 ± 0.064
I7R | -0.25 ± 0.057
C28Y | -0.85 ± 0.12
C28K | -0.823 ± 0.097
N20Q | -0.004 ± 0.059
N20H | -0.033 ± 0.07
N20P | -0.559 ± 0.067
N39V | 0.058 ± 0.066
N39C | -0.319 ± 0.11
N39L | 0.037 ± 0.065
N39R | 0.081 ± 0.055
C5P | -1.02 ± 0.17
C5A | -1.29 ± 0.094
C5Y | -0.97 ± 0.17
C5D | -0.79 ± 0.22
R37Q | 0.106 ± 0.069
R37I | -0.512 ± 0.13
R37V | -0.23 ± 0.057
R37E | 0.395 ± 0.061
R37Y | -0.283 ± 0.15

Variant | abundance fitness
F33L | 0.256 ± 0.054
F33Y | -0.094 ± 0.1
F33H | 0.073 ± 0.095
F33K | 0.03 ± 0.067
F33W | 0.154 ± 0.06
S34R | 0.076 ± 0.054
S34Q | 0.382 ± 0.083
S34A | 0.203 ± 0.056
K10T | -0.277 ± 0.079
K10N | -0.559 ± 0.17
K10W | -0.479 ± 0.06
K10I | -0.417 ± 0.11
K10V | -0.649 ± 0.074
K10M | -0.232 ± 0.083
K10F | -0.595 ± 0.46
K10C | -0.367 ± 0.07
F36Q | 0.002 ± 0.074
F36I | -0.061 ± 0.072
F36W | 0.147 ± 0.057
F36A | 0.042 ± 0.056
V24E | -0.03 ± 0.064
V24H | -0.034 ± 0.075
G12T | -0.092 ± 0.067
G12L | -0.245 ± 0.061

Variant | abundance fitness
R4I | 0.211 ± 0.062
R4V | -0.193 ± 0.057
R4A | -0.2 ± 0.056
R4T | -0.125 ± 0.064
R4L | -0.32 ± 0.054
S19Q | 0.059 ± 0.065
S19M | -0.12 ± 0.079
S19Y | -0.383 ± 0.15
S19L | -0.233 ± 0.059
S31K | 0.081 ± 0.086
S31C | -0.185 ± 0.18
S31R | 0.047 ± 0.053
S31M | -0.006 ± 0.072
S31P | -0.025 ± 0.072
S31Q | 0.042 ± 0.075
S31D | 0.094 ± 0.09
S31V | -0.032 ± 0.056
C8I | -0.978 ± 0.2
C8Y | -0.774 ± 0.15
C8D | -0.895 ± 0.15
C8N | -0.779 ± 0.15
S29E | -0.325 ± 0.063
S29A | -0.363 ± 0.061
S29P | -0.487 ± 0.074

Variant | abundance fitness
S29K | -0.602 ± 0.09
S29Q | -0.427 ± 0.087
S29H | -0.683 ± 0.16
L15R | 0.07 ± 0.052
L15Q | 0.102 ± 0.059
L15S | 0.047 ± 0.065
L15H | 0.017 ± 0.11
E17K | -0.073 ± 0.06
E17N | -0.291 ± 0.11
E17D | -0.251 ± 0.11
E17Y | -1.02 ± 0.23
E17L | -0.764 ± 0.067
E17W | -0.959 ± 0.081
K35S | 0.02 ± 0.058
K35T | 0.058 ± 0.066
K35H | -0.03 ± 0.084
T3P | -0.561 ± 0.067
T3I | -0.028 ± 0.075
T3D | -0.088 ± 0.067
S6Q | -0.285 ± 0.072
S6N | -0.218 ± 0.093
S6G | -0.252 ± 0.053
S6E | -0.103 ± 0.065
S6V | -0.469 ± 0.059

Variant | abundance fitness
K40P | -0.12 ± 0.17
K40I | 0.012 ± 0.072
K40H | 0.222 ± 0.08
K40C | 0.205 ± 0.16
K40F | -0.128 ± 0.15
V14W | -0.561 ± 0.066
V14P | -0.057 ± 0.067
V14H | -0.667 ± 0.12
V14M | -0.029 ± 0.065
V14G | -0.08 ± 0.052
S22Q | -0.001 ± 0.065
S22L | -0.208 ± 0.06
S22V | -0.571 ± 0.06
S22I | -0.153 ± 0.073
S22H | -0.055 ± 0.076
V23P | -0.374 ± 0.076
V23N | 0.14 ± 0.12
V23E | 0.103 ± 0.057
V23M | 0.13 ± 0.079
V23C | -0.937 ± 0.09
L27E | -0.352 ± 0.067
L27K | -0.317 ± 0.069
L27Q | -0.294 ± 0.07
L27N | -0.618 ± 0.096

Variant | abundance fitness
Q9W | -0.234 ± 0.066
Q9H | -0.194 ± 0.085
V18F | -0.095 ± 0.095
V18Q | -0.243 ± 0.063
V18W | -0.228 ± 0.071
V18K | -0.267 ± 0.064
V18M | -0.266 ± 0.074
A38H | -0.524 ± 0.15
A38G | 0.011 ± 0.05
D30C | -1.66 ± 0.31
D30H | -0.425 ± 0.15
D30T | -0.219 ± 0.066
E13F | 0.036 ± 0.1
E13S | -0.201 ± 0.054
E13C | -0.855 ± 0.078
H25N | -0.031 ± 0.081
H25P | -0.363 ± 0.073
H25E | 0.205 ± 0.058
G21K | -0.214 ± 0.058
G21W | -0.701 ± 0.07
G21P | -0.392 ± 0.1
G21F | -0.366 ± 0.17
G21M | -0.243 ± 0.093
